Laboratory results reported in patent US20200179497.
Positions count from the first letter of the chain named.

Biological target: IVIg (Octagam)

B1: pCART124 (IdeS with additional N terminal methionine and histidine tag) (protein)
chain: MDSFSANQEIRYSEVTPYHVTSVWTKGVTPPANFTQGEDVFHAPYVANQGWYDITKTFNGKDDLLCGAATAGNMLHWWFDQNKDQIKRYLEEHPEKQKINFNGEQMFDVKEAIDTKNHQLDSKLFEYFKEKAFPYLSTKHLGVFPDHVIDMFINGYRLSLTNHGPTPVKEGSKDPRGGIFDAVFTRGDQSKLLTSRHDFKEKNLKEISDLIKKELTEGKALGLSHTYANVRINHVINLWGADFDSNGNLKAIYVTDSDSNASIGMKKYFVGVNSAGKVAISAKEIKEDNIGAQVLGLFTLSTGQDSWNQTNGGGHHHHHH
- enzyme concentration at which cleavage starts on SDS-PAGE: IdeS, which starts the cleavage at 0.9 ng/ml (lane 6) and has a dominating scIgG band at 1.9 ng/ml (lane 5)

B2: pCART203 (protein)
chain: MDDYQRNATEAYAKEVPHQITSVWTKGVTPPEQFTQGEDVIHAPYLAHQGWYDITKAFDGKDNLLCGAATAGNMLHWWFDQNKTEIEAYLSKHPEKQKIIFNNQELFDLKAAIDTKDSQTNSQLFNYFRDKAFPNLSARQLGVMPDLVLDMFINGYYLNVFKTQSTDVNRPYQDKDKRGGIFDAVFTRGDQTTLLTARHDLKNKGLNDISTIIKQELTEGRALALSHTYANVSISHVINLWGADFNAEGNLEAIYVTDSDANASIGMKKYFVGINAHGHVAISAKKIEGENIGAQVLGLFTLSSGKDIWQKLSGGGHHHHHH
- cleavage efficacy on SDS-PAGE, fold vs IdeS: a 2 fold increased efficacy compared to IdeS
- enzyme concentration at which IgG cleavage is seen on SDS-PAGE: demonstrates IgG cleavage at 0.5 ng/ml (lane 7)

B3: pCART208 (protein)
chain: B2 chain with F101I, N102R
- cleavage efficacy of the 1st heavy chain on SDS-PAGE, fold vs IdeS: approximately a 4 fold increase in cleavage efficacy of the 1st heavy chain

B4: BX1001865 (IdeS lacking tag, produced to GMP standard) (protein)
chain: DSFSANQEIRYSEVTPYHVTSVWTKGVTPPANFTQGEDVFHAPYVANQGWYDITKTFNGKDDLLCGAATAGNMLHWWFDQNKDQIKRYLEEHPEKQKINFNGEQMFDVKEAIDTKNHQLDSKLFEYFKEKAFPYLSTKHLGVFPDHVIDMFINGYRLSLTNHGPTPVKEGSKDPRGGIFDAVFTRGDQSKLLTSRHDFKEKNLKEISDLIKKELTEGKALGLSHTYANVRINHVINLWGADFDSNGNLKAIYVTDSDSNASIGMKKYFVGVNSAGKVAISAKEIKEDNIGAQVLGLFTLSTGQDSWNQTN
- enzyme concentration at which cleavage starts on SDS-PAGE: IdeS, which starts the cleavage at 0.9 ng/ml (lane 6) and has a dominating scIgG band at 1.9 ng/ml (lane 5)
